Values of other authors in article PMC2288786 (BMC Structural Biology, 2008).

Biological target: CaM
Details: previously observed for full-length MBP; ref [18],[21]
Source text: Background The myelin sheath is a multilamellar membrane structure wrapped around the axon, enabling the saltatory conduction of nerve impulses in vertebrates. […] In this study, we focus on a 19-mer synthetic peptide from the predicted calmodulin-binding segment near the C-terminus of human myelin basic protein. […] The binding of the ...

B1: full-length myelin basic protein: full-length myelin basic protein of earlier studies (protein, UniProt P02686 1-304, looked up)
chain: MGNHAGKRELNAEKASTNSETNRGESEKKRNLGELSRTTSEDNEVFGEADANQNNGTSSQDTAVTDSKRTADPKNAWQDAHPADPGSRPHLIRLFSRDAPGREDNTFKDRPSESDELQTIQEDSAATSESLDVMASQKRPSQRHGSKYLATASTMDHARHGFLPRHRDTGILDSIGRFFGGDRGAPKRGSGKDSHHPARTAHYGSLPQKSHGRTQDENPVVHFFKNIVTPRTPPPSQGKGRGLSLSRFSWGAEGQRPGFGYGGRASDYKSAHKGFKGVDAQGTLSKIFKLGGRDSRSGSPMARR
modifications: full-length
notes: full-length myelin basic protein of earlier studies
For B1, the Kd in words is listed as “low μM range”.
